The values below are quoted from earlier work in patent publication US6200966A, “Compositions for inhibiting airway wall inflammation” (Amrad Operations Pty. Ltd., priority 1996, dated 2001).

This data set concerns cultured airway smooth muscle. The note with it: various species.

B1: PDGFBB: platelet-derived growth factor (protein, UniProt P01127 82-190, looked up)
Platelet-derived growth …: SLGSLTIAEPAMIAECKTRTEVFEISRRLIDRTNANFLVWPPCVEVQRCSGCCNNRNVQCRPTQVQLRPVQVRKIEIVRKKPIFKKATVTLEDHLACKCETVAAARPVT
Regarding B1, the “mitogenic activity on airway smooth muscle” value was “most effective proliferative agents”.
